Assay results from patent US20160376321A1 (BAYLOR COLLEGE OF MEDICINE, published 2016).

Target: soluble ACE2 (sACE2), containing 6xHis tag (R&D Systems) (human, UniProt Q9BYF1 18-740)
Assay: Ni-NTA pull-down with His-tagged sACE2, Western blot (FIG. 7B-C)

B1: recombinant protein containing RBD of Middle East respiratory syndrome coronavirus (MERS-CoV) (other)
chain: QAEGVECDFSPLLSGTPPQVYNFKRLVFTNCNYNLTKLLSLFSVNDFTCSQISPAAIASNCYSSLILDYFSYPLSMKSDLSVSSAGPISQFNYKQSFSNPTCLILATVPHNLTTITKPLKYSYINKCSRFLSDDRTEVPQLVNANQYSPCVSIVPSTVWEDGDYYRKQLSPLEGGGWLVASGSTVAMTEQLQMGFGITVQYGTDTNSVCPKL
B1: no binding (tested: 20 µg).
